Measured values reported in patent publication US12144818B2, “Method for treating cancer in a human patient by administering an anti-CD37 immunoconjugate using various dosing regimens” (DEBIOPHARM INTERNATIONAL, S.A., priority 2018, dated 2024).

Key:
[1] = QW versus Q3W regimen, with rituximab
Method: Adverse events are monitored continuously throughout the study. Adverse events include any noxious, pathologic, or unintended change in anatomical, physiologic, or metabolic function as indicated by physical signs, symptoms, or laboratory changes occurring in any phase of a clinical study, whether or not considered study drug-related. PK parameters that are evaluated include, but are not limited to: Cmax, Tmax, Terminal half-life (t1/2), Vss, CL, AUC0-t, AUCinf.

[2] = low doses such as 0.4 mg/kg and 0.2 mg/kg; cited from earlier work
[3] = Phase 1 monotherapy study, safety; format: in vivo, human
Method: As such, a more frequent QW dosing schedule with 0.4/0.2/0.2 mg/kg (combined with rituximab Q3W at 375 mg/m^2) should not increase the risk of neutropenia.

[4] = biological target: T1, CD37 (Homo sapiens, UniProt P11049); test: Theoretical receptor occupancy derived from observed Cmax, monotherapy Phase 1 study; format: in vivo; conditions: even at low dose levels
T1 construct: endogenous in cells; host or cells: CD3+ T and CD56+ NK lymphocytes in blood samples from DLBCL patients of Cohorts A and B
T1 sequence (P11049 1-281): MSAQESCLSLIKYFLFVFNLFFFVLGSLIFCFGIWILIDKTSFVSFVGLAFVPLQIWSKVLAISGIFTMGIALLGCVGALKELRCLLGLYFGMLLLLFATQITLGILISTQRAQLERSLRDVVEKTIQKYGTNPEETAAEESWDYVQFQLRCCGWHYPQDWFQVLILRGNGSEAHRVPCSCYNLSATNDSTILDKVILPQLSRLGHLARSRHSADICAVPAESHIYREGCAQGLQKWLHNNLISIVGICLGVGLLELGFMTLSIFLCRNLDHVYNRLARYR
Method: Therefore, a 0.4 mg/kg loading dose followed by 2 weekly doses of 0.2 mg/kg is expected to provide adequate target saturation across a 3-weeks cycle.

[5] = biological target: T1, CD37; test: CD37 receptor occupancy on CD3+T and CD56+NK cells of Cohort A and B subjects; format: in vivo
From the text: The maximum RO observed at C1D2 (cycle 1-dose 2) and C1D3 was greater than 90% for both cohorts.

[6] = system: panel of cell lines representative of diverse NHL subtypes (ABC and GCB DLBCL, CLL, MCL); conditions: in combination with rituximab; described in WO 2016/200676; cited from earlier work

Debio 1562: immunoconjugate containing the huCD37-3 antibody, the SMCC linker, and the DM1 maytansinoid
safety [1]: comparable in the QW regimen and the Q3W regimen | clearance [2]: substantially higher at low doses | half-life [2]: lower | maximum tolerated dose (MTD) ([3]; Phase 1, without G-CSF): 1 mg/kg | neutrophil count ([3]; majority of patients, single Q3W dosing with 0.2-0.4 mg/kg, Phase 1): no decrease in neutrophil count | saturation of the CD37 sites (theoretical receptor occupancy) [4]: > 95% | CD37 receptor occupancy (RO) after administration ([5]; C1D1, CD3+T and CD56+NK lymphocytes, Cohorts A and B): greater than 80% | maximum RO ([5]; C1D2 and C1D3, both cohorts): greater than 90% | RO just before re-administration ([5]; samples just before re-administration in cycle 2 and cycle 3): No RO was observed | pro-apoptotic activity of the combination [6]: synergistic pro-apoptotic activity
